Here are results for 33 sequences from the supplement of paper PMC9170038.

This data set deals with MS2 coat protein. The data set can be described thus: apparent KD of MS2 coat protein; designed switch direction (-1 OFF switch, 1 ON switch): -1; higher = weaker reporter binding. The method in brief:
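SNAP-549-labelled MS2 coat protein was titrated, doubling from 0.7 or 1.5 nM to 3 µM, over designed RNA switches transcribed on Illumina chips by stalled E. coli RNA polymerase. Runs were done without input, with 200 uM small-molecule ligand, or with an oligonucleotide input. Apparent KD is the per-design median over clusters of curve-fitted normalised fluorescence.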

[1] abbreviates: Eterna round: R95, input ligand: microRNA oligo, concentration not stated.
[2] abbreviates: Eterna round: R95, input ligand: FMN 200 uM.
The mark [3] stands for this setting: Eterna round: R95, input ligand: none.
The mark [4] stands for this setting: input ligand: microRNA oligo, concentration not stated.

As for “GUCGGGCAAGGAUAUGUAGCACUCUACAUGAGGAUCACCCAUGUGAGCCUGCAUGGUGCGACAGAAGGUGCAAAAG [Enencear] (Eterna round: R97, puzzle: Exclusion 5)”, the “apparent KD of MS2 coat protein” value (input ligand: FMN 200 uM) was 330 nM and the “apparent KD of MS2 coat protein” value (input ligand: none) was 361 nM.

As to “GUCGUGUAAGGAUAUGCAUCGAGGUAGCGAAUGUUGCAGGUGUAGAAGGUACAUGAGGAUCACCCAUGUAAUGU [Exclusion 4 - An extended Mod of Jieux] (puzzle: Exclusion 4)”, the “apparent KD of MS2 coat protein” value under setting [1] was 20.2 nM.

Regarding “GUCUAGCGAGGAUAUUGCAGACGAAACAUGAGGAUCACCCAUGUGGCCUUGUGCCGUGUGCAAGAAGGCGCGAGGC [Gelelaor] (Eterna round: R97, puzzle: Exclusion 5)”, the “apparent KD of MS2 coat protein” value by setting is: (input ligand: FMN 200 uM) 297 nM; (input ligand: none) 268 nM.

With “GUCUUACAUGAGGAUCACCCAUGUGAGGAUAUGGAUUCGCUGGCCGUAGCCAGUGGAUCCAGAAGGCGCAUGAU [JL-ex1-4.04] (Eterna round: R97, puzzle: Exclusion 1)”, the “apparent KD of MS2 coat protein” value was found to be 50.9 nM (input ligand: FMN 200 uM) and 39.2 nM (input ligand: none).

“GUCUUACAUGAGGAUCACCCAUGUGAGGAUAUGGAUUCGCUGGCCGUAGCCAGUGGAUCCAGAAGGCGCGUGAU [JL-ex1-4.20] (Eterna round: R97, puzzle: Exclusion 1)”: the “apparent KD of MS2 coat protein” value runs as follows: (input ligand: FMN 200 uM) 67 nM; (input ligand: none) 62.5 nM.

Take “GUGAAGUGAGGAUAUACGAGAGAGGCUGAACCGGACGAGAAGUAGAAGGCACAUGAGGAUCACCCAUGUAAGGA [JR_Exclu4_Sub022] (puzzle: Exclusion 4)”: the “apparent KD of MS2 coat protein” value under setting [1] came out at 34.4 nM.

As for “GUGAGAUAGUUAGUGGACGACAUGAGGAUCACCCAUGUGAGGGAAAUGUUAAGGAGAAAGCUUUUUGCUCGUCUUUA [JR_SV3TOV1_Sub035] (puzzle: Sensor v3, turn-off variant 1)”, the “apparent KD of MS2 coat protein” value runs as follows: under setting [2], 98.9 nM; under setting [1], 70.4 nM; under setting [3], 180 nM.

On to “GUGAGCAGACGGAGAUCCAACAUGAGGAUCACCCAUGUCUCACUAGCUUUUUGCUCGUCUUAUCCUCCUCUGUUCAC [Elimod 23 - Jieux - Sensor, turn-off variant 1] (Eterna round: R97, puzzle: Sensor, turn-off variant 1)”, for which the “apparent KD of MS2 coat protein” value (input ligand: FMN 200 uM) is 16 nM and the “apparent KD of MS2 coat protein” value (input ligand: none) is 16.2 nM.

As to “GUGAUCUAUCAUGGGAUAAACAUGAGGAUCACCCAUGUAAACAAGUUUUUUGCUCGUCUUAUAAUAAGAUAGAUCAC [Antenna 2 - Jieux - Sensor, turn-off variant 1] (Eterna round: R97, puzzle: Sensor, turn-off variant 1)”, the “apparent KD of MS2 coat protein” value reads like this: (input ligand: FMN 200 uM) 21.1 nM; (input ligand: none) 20.9 nM.

Regarding “GUGGAGUAAGGAUAUACAUGAGGAUCACCCAUGUGAGGGUAUGAGAAGGGAAUGAGAGGUAGAAGGUACGAGGG [JR_Exclu3_Sub070] (puzzle: Exclusion 3)”, under setting [1], the “apparent KD of MS2 coat protein” value worked out at 111 nM.

Consider “GUGGUGACAGGAUAUACAUGAGGAUCACCCAUGUGAGGAGGAGGAGAGAGGUGAAGGAGUAGAAGGGUCAGAGA [JR_Exclu3_Sub025] (puzzle: Exclusion 3)”, for which the “apparent KD of MS2 coat protein” value runs as follows: under setting [2], 102 nM; under setting [1], 91.5 nM; under setting [3], 106 nM.

In the case of “GUGGUUCCUGUCAGGAUAUACGCGGACCACCACCUGUAGAAGGGACAUGAGGAUCACCCAUGUUUUCCAAAGCG [Eternabot (L2) Solution 80] (Eterna round: R97, puzzle: Brourd's mod of Exclusion 4)”, the “apparent KD of MS2 coat protein” value (input ligand: FMN 200 uM) was determined as 13.2 nM and the “apparent KD of MS2 coat protein” value (input ligand: none) was 13 nM.

Regarding “GUGUAACUACACGGGCUCAACAUGAGGAUCACCCAUGUCAUACACGCAAGCUUUUUGCUUGUCUUAUCAGUCCGUGA [Rereerdiin] (puzzle: Sensor v3, turn-off variant 1)”, the “apparent KD of MS2 coat protein” value runs as follows: under setting [2], 13 nM; under setting [1], 13.4 nM; under setting [3], 11.1 nM.

As to “GUGUACAGAGGAUAUACUUAUGGAGUUACGAAAGUAACUUCACAUGAGGAUCACCCAUGUAGAAGGCUGUACAC [Dot plot directed v10] (puzzle: Exclusion 2)”, the “apparent KD of MS2 coat protein” value under setting [1] came out at 25.9 nM.

On to “GUGUACAGAGGAUAUACUUGAAUCUAGCGAAGCUAGGUUCGACAUGAGGAUCACCCAUGUAGAAGGCUGUACAC [Dot plot directed A v2] (puzzle: Exclusion 2)”, for which the “apparent KD of MS2 coat protein” value under setting [1] is 12.4 nM.

As for “GUGUACAGAGGAUAUGCACGAGGAGUUACGAAAGUAACUUCACAUGAGGAUCACCCAUGUAGAAGGCUGUACAC [Dot plot directed v5] (puzzle: Exclusion 2)”, the “apparent KD of MS2 coat protein” value under setting [1] came to 13.9 nM.

As for “GUGUCGUAAGGAUAUUUACCUGAGCCACUAGAGCGCUUGGAGAAGAAGGUACAUGAGGAUCACCCAUGUGGUGA [Eternabot (L2) Solution 61] (Eterna round: R97, puzzle: Exclusion 4)”, the “apparent KD of MS2 coat protein” value (input ligand: FMN 200 uM) was 1430 nM and the “apparent KD of MS2 coat protein” value (input ligand: none) came out at 2570 nM.

For “GUGUGCAGAGGAUAUACAUAGUAAAAUAAAAUAUAAUAGGGACAUGAGGAUCACCCAUGUAGAAGGCUGAGUGU [Excluse me!! 23 - Jieux - Exclusion 2] (puzzle: Exclusion 2)”, the “apparent KD of MS2 coat protein” value reads like this: under setting [2], 51.2 nM; under setting [1], 41.7 nM; under setting [3], 46.1 nM.

Take “GUGUGCUGAGGAUAUACAGAGGAAGAUAAGAUAAGAUAAUCACAUGAGGAUCACCCAUGUAGAAGGCAGAGUGU [Excluse me!! 16 - Jieux - Exclusion 2] (puzzle: Exclusion 2)”: under setting [1], the “apparent KD of MS2 coat protein” value is 27 nM.

For the sequence “GUGUGCUGAGGAUAUACAUAGGAAGAGAAGAGAAGAGAAGGACAUGAGGAUCACCCAUGUAGAAGGCAGAGUGU [Excluse me!! 12 - Jieux - Exclusion 2] (puzzle: Exclusion 2)”, the “apparent KD of MS2 coat protein” value under setting [1] is 24.5 nM.

For “GUGUUGCGAGGAUAUAUAAGGAAAUGUUCUUAGGAUAUGGAACAUGAGGAUCACCCAUGUAGAAGGUGCAUAUC [JR_Ex2_Sub048] (Eterna round: R97, puzzle: Exclusion 2)”, the “apparent KD of MS2 coat protein” value (input ligand: FMN 200 uM) was determined as 48.1 nM and the “apparent KD of MS2 coat protein” value (input ligand: none) stood at 38.7 nM.

As for “GUGUUUUAUGUAGGAUAUGCAUACUGUUAGUAUGCAGAAGGACAUGAGGAUCACCCAUGUAUAUUAUUAUUAUAUAUCAUACAU [MOD2 of Hoglahoo's Title] (Eterna round: R96, puzzle: Exclusion NG 1)”, the “apparent KD of MS2 coat protein” value (input ligand: FMN 200 uM) stood at 98 nM, the “apparent KD of MS2 coat protein” value under setting [4] came to 16 nM and the “apparent KD of MS2 coat protein” value (input ligand: none) amounted to 18.9 nM.

On to “GUUAAACAUGAGGAUCACCCAUGUAAGGAUAUGCUGCGGUCGAGAUGAAGUGACUGCAGCAGAAGGUACAAAUG [Mat - Mod of JL D60] (puzzle: Exclusion 1)”, for which the “apparent KD of MS2 coat protein” value is 162 nM under setting [2], 127 nM under setting [1] and 133 nM under setting [3].

As to “GUUAACGUAGGAUAUUAGUACAUGAACAUGAGGAUCACCCAUGUGAGGUAGGUCUUAGAAUAAGAAGGGCGAAGAA [EX5 #28] (Eterna round: R97, puzzle: Exclusion 5)”, the “apparent KD of MS2 coat protein” value stood at 124 nM (input ligand: FMN 200 uM) and 124 nM (input ligand: none).

Take “GUUAGUUAAGGAUAUACAGGGAGCCGCGGCGUCUCGCCGCAACAUGAGGAUCACCCAUGUAGAAGGUAGCCAUU [JL ViennaUCT Enbibi mod 1] (puzzle: Exclusion 2)”: the “apparent KD of MS2 coat protein” value under setting [1] turned out to be 25.5 nM.

With “GUUAGUUAAGGAUAUACAGGGAGCUGCGGCGUCUCGCCGCAACAUGAGGAUCACCCAUGUAGAAGGUGACCUUU [JL ViennaUCT Enbibi mod 7] (puzzle: Exclusion 2)”, the “apparent KD of MS2 coat protein” value under setting [1] was 435 nM.

Regarding “GUUAUGUUAGGAUAUGCUUAUGGUGGGUGCUCAGACAUGAUGCAGAAGGGACAUGAGGAUCACCCAUGUACUGU [EX4 #19] (Eterna round: R97, puzzle: Exclusion 4)”, the “apparent KD of MS2 coat protein” value (input ligand: FMN 200 uM) turned out to be 777 nM and the “apparent KD of MS2 coat protein” value (input ligand: none) was determined as 991 nM.

“GUUGUUGCGCAGGAUAUCCAGCGACUUGUCGAAGGAGAAGGGCGCACAUGAGGAUCACCCAUGUGCCUCUGUAA [EX6 B.20] (Eterna round: R97, puzzle: Exclusion 6)”: the “apparent KD of MS2 coat protein” value runs as follows: (input ligand: FMN 200 uM) 43 nM; (input ligand: none) 18.6 nM.

On to “GUUGUUUAUGUAGGAUAUGCCUGGCGUGCCUUUGCAGAAGGACAUGAGGAUCACCCAUGUAACAUGAGGCUCACCCAUGUCGCC [salish99_ExNG1_r04_108] (Eterna round: R96, puzzle: Exclusion NG 1)”, for which the “apparent KD of MS2 coat protein” value by setting is: (input ligand: FMN 200 uM) 220 nM; under setting [4], 72.6 nM; (input ligand: none) 160 nM.

“GUUUCACAUGAGGAUCACCCAUGUGAGGAUAUGGAUUCGCUGGCCGUAGCCAGUGGAUCCAGAAGGCGCGUGAU [JL-ex1-4.21] (Eterna round: R97, puzzle: Exclusion 1)”: the “apparent KD of MS2 coat protein” value reads like this: (input ligand: FMN 200 uM) 60.5 nM; (input ligand: none) 61.7 nM.

Turning to “GUUUGACAUGAGGAUCACCCAUGUAAGGAUAUACGAGUAGAUACUAGAUAGUUAGUAUGUAGAAGGUACGUGUU [EX1 #64] (Eterna round: R97, puzzle: Exclusion 1)”, the “apparent KD of MS2 coat protein” value reads like this: (input ligand: FMN 200 uM) 34.6 nM; (input ligand: none) 43.5 nM.

“GUUUGACAUGAGGAUCACCCAUGUAAGGAUAUACGAGUAGAUGAUAGAUAGAUAGUAAGUAGAAGGUACGUGUU [Translation] (Eterna round: R97, puzzle: Exclusion 1)”: the “apparent KD of MS2 coat protein” value reads like this: (input ligand: FMN 200 uM) 70.6 nM; (input ligand: none) 105 nM.

“GUUUUCAGACGGAGAUCCUACAUGAGGAUCACCCAUGUCUCACUAGCUUUUUGCUCGUCUUAUCCUCCUCUGUUCUC [Elimod 28 - Jieux - Sensor, turn-off variant 1] (Eterna round: R97, puzzle: Sensor, turn-off variant 1)”: the “apparent KD of MS2 coat protein” value worked out at 336 nM (input ligand: FMN 200 uM) and 460 nM (input ligand: none).
